Assay results published in the supplement of paper PMC12042874.
± gives the uncertainty stated by the source.

Assay: amyloid nucleation score (Sup35N fusion, yeast selection) (log enrichment); library NNK1; higher = more nucleation; inactive = no reads after selection
Summary of the method: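 Output and input plasmid inserts were sequenced by Illumina after psi-negative yeast carrying Sup35N fused to peptides of 20 random codons had been induced 24 hours with 100 μM copper sulfate and grown 7 days at 30°C on medium lacking adenine and uracil. The nucleation score is the DiMSum log enrichment of output over input reads, centred on the mode score of non-aggregating sequences. Sequences with under 100 input reads were excluded.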

Substance | amyloid nucleation score
GRRLIKSTQCGVNKVDSAIW | -0.184 ± 0.27
AEWVYITMGYAWLKRSNVVE | 0.092 ± 0.33
LWFDYFPF | -0.096 ± 0.43
TTRFRNFKLRSH | inactive
FIWGLKLVDFSLPVSAL | -0.411 ± 0.51
ISDCRFILMYSYGHLCAGVR | 0.513 ± 0.45
TQDIILDNSHDATHQHTRRA | -0.243 ± 1
CLLSRLYMVSLFWS | 0.033 ± 0.43
YAFDMRMENTQVRYHVPLII | 0.292 ± 0.73
VKLGDNNTRQLTYSGS | 1.71 ± 0.73
LLPYSLMLRDLGFLKHYLGV | -0.264 ± 0.61
GCHLVWFGVVYRQQWSFGVD | 0.563 ± 0.57
VFYDVGGVSD | 0.03 ± 0.48
LTEDPGIRSSQR | 0.055 ± 1
CHVSLYRMDIGLQYRTGRIW | 0.645 ± 0.52
RLSYISPPSVYLALSRSRMD | 0.229 ± 0.75
LDHYDVSGNRMVL | -0.487 ± 0.27
SRFPYKKSVRTDSGRMSM | -0.393 ± 0.86
NFKVYPSGCKEECAYVLLSL | 3.87 ± 0.079
KSFNVLCHIAVVPNRWVGRT | 2.49 ± 0.13
RNGPSWYSAIPY | inactive
DRNLDEWGEASL | -0.145 ± 1.5
MCNDGSYYAILACGVSLRVL | inactive
GLVGTRICSWIDFRSV | -0.3 ± 1.5
QWRFKVRVHVEVSSSGVCSI | inactive

Substance | amyloid nucleation score
TRIVLLVVRRGTRKG | 0.889 ± 0.48
APNFLMCNRPGIF | 3.02 ± 0.086
SLNSMVSLTWVRRDYTIWKR | 0.001 ± 0.23
LGLDGCSSMLEEDFCR | 0.45 ± 0.52
REPIYFSVSMIWGTLASPVT | -0.447 ± 0.98
LYMICGVYCLDSGIRTMRTF | 5.51 ± 0.067
LLIVYYNVDITQCRWFTELC | -0.16 ± 0.58
IWMFISAVASFNITRSWCYL | 2.02 ± 0.13
CLPRSGLSINWTVSHNYRLI | 0.11 ± 0.25
SLIFCSYSNDLFHSWNHKFR | -0.068 ± 0.7
PYWVYEHSTC | -0.726 ± 0.63
NRVLLSEAKSQFIG | 0.366 ± 0.59
YGVNLPALLFKYAISGSLVG | 1.03 ± 0.53
GASGGVTASLLKTRITVTWV | -0.271 ± 0.79
YLCFKYVLGCNRWSVAVVNF | inactive
FIIKYK | 2.26 ± 0.19
CGRVDEFKALLYKILRDYNW | -0.141 ± 0.23
ALETFNGQVMSPSSRLRIDR | -1.07 ± 0.88
FHNVFCFSYFT | 7.21 ± 0.078
FINNNVEDYFISL | 0.712 ± 0.41
ANRHRNRRSSSRDVFMFVIC | 3.02 ± 0.19
LFFTGVHRKF | 4.28 ± 0.064
RSSNLVCYFFSVWWY | 2.02 ± 0.44
KASGIMLSSGVLEILVWVQW | 0.01 ± 0.84
QNIYFFKCAKHSKVNRSDMS | 1.91 ± 0.55

Substance | amyloid nucleation score
FMPRSLHLTTWLQSNAFNNA | 3.22 ± 0.068
TCNHYNRVVFQSNVIYLIHV | 2.77 ± 0.15
ILATMQFLCQMGSERNQARA | 0.454 ± 0.26
KLCCSLVNSIMNLFAMSAAV | inactive
LSMSTFVKVCDVNAYPKGTA | 0.358 ± 1.1
GSGSDGQVGWFVANRDERRE | 0.495 ± 0.38
YIVRQECSRIQYLTDM | 1.22 ± 0.73
YFLGQMLISEGIMSVAFCVR | 5.13 ± 0.073
LTDPLCQTPFFYLFCRDAQE | -0.142 ± 0.4
IAFTVWADWYLPKLGLIREL | 0.508 ± 0.74
LTHCAWVAFDA | 1.7 ± 0.52
NEGIMPLVNHSKQEEPGVYR | 0.753 ± 0.57
LTPRRYIWTYLSWGDAGLEL | 1.02 ± 0.9
GRNRRDVMSRSYSVVG | -0.72 ± 1.1
LDLSSWGTVP | 0.122 ± 0.44
LCMVAQLWYQPV | 2.01 ± 0.16
RVCKFKFYQFSSSKC | 3.75 ± 0.067
LWGIMYTM | -0.026 ± 0.93
HSPCMPLTCSQTWHSLDLPF | -0.304 ± 0.55
MGRLRARRSLVLVA | inactive
MWHGSVTMGGIRGTRDSVHQ | 0.792 ± 0.53
SGHTVVMVMNMCCVSFHLRC | 6.562 ± 0.048
GVPVYAVFLVDAMMYVCCMF | 3.51 ± 0.14
FFALVYW | 0.275 ± 0.29
IYLSNAYSTTYSLKFSFM | 6.14 ± 0.071

Substance | amyloid nucleation score
HLYDC | inactive
WTNSRHC | 0.636 ± 0.38
YNTSGNTRS | -0.269 ± 0.64
ALFCSTIRNQIGFIRHPESF | 0.026 ± 0.58
HARRRCLDGFDMQGGIFM | 0.047 ± 0.47
NLICDLGNSVTMSVRDDQTV | -0.013 ± 0.36
EIWPFMPRDHPMNALIYVSR | 1.34 ± 0.39
CVARIDCEWIKPLSLHCSCT | -0.499 ± 1.3
SSLGAIYGLINQRPA | 0.776 ± 1
ESGYVLESSVQVENKFIFTT | -2.27 ± 2.4
LLIALFSW | 1.34 ± 0.25
EFYVLISV | -1.23 ± 1.9
CGYLCNGKSGERSGIFGAHQ | -0.088 ± 0.39
VVFRGIVCCCQ | 0.3 ± 0.58
STKSTQDSSSDFIAVCGKRE | 0.925 ± 1.1
DVKCRLWIHAL | -0.066 ± 0.54
FQSLGTFLDIQLCGHNLVAE | 0.537 ± 0.34
LLNCLWDKMWTGLVRCIKNG | -0.075 ± 0.35
TYTCVNPVGHFTGGNRGILW | 0.425 ± 1.1
GGLAGTTLKLRICF | -1.03 ± 1.9
AVYMLSMCPFEYAYKRCVCG | -1.16 ± 1.7
DGSGGPYIGILLWGLAKMSG | -0.488 ± 0.85
YFTERL | 0.122 ± 0.44
RCYSVRCTFQVDYARIHANE | 1.99 ± 0.17
NYYIRRTCMSTYYVRVLIKS | 0.522 ± 0.39

Substance | amyloid nucleation score
PFSGFLCSRVCAMVDKTLFS | inactive
LCGISSSCYVVGSLRVIWLS | 0.147 ± 0.65
GISFFGGLQASFLLPLASLL | 0.413 ± 1.1
RCKFESVKRVS | 1.42 ± 0.54
NTYVYNDKGVRNIWKKLVYT | inactive
FEYRRNLKCVSFFWSVGINR | -0.436 ± 0.4
LLNAAHIEGT | 0.064 ± 0.59
KTCFHNNLPKIGLPHHLHNG | -1.32 ± 1.9
TCKTHHRGTPGATVFPKDTA | 0.17 ± 0.45
SLYLGNSGSDLGD | 0.2 ± 1.1
FIEQGHYNHTGFGSYGWRF | 0.972 ± 0.29
WGMWSGLLFGEFWCS | -0.424 ± 0.71
MYGGKCSNGPCMYSVGIGTW | 1.39 ± 0.34
SAYSKILSLPVRMGVWVAHI | 0.658 ± 0.42
PSLYACGQKPRSEALDARWL | inactive
NACIQVTGRCCIACVVEFWY | 1.32 ± 0.38
GICDLLAHG | 0.322 ± 0.25
GMLGDVTVYLACRLLISRFL | inactive
TEGPSN | inactive
VWTGCVHCRRWDSGSLLNSW | -0.036 ± 0.91
VIWSNWRRRVPEGPDERYKR | 0.649 ± 0.46
VSYSGQSLICYWVLEASFVV | -0.05 ± 0.31
DGRVKAKVMMVRNGSLRNVL | 0.002 ± 0.4
GATSFFFSFRESNPLSNNHS | 2.79 ± 0.099
SNTEP | -0.487 ± 0.57

Substance | amyloid nucleation score
CVFYCRR | 0.091 ± 1.1
IWWVDGVKTGSF | 1.21 ± 0.76
TAVIKLSCLSLFMNSIMLVY | 2.59 ± 0.12
FRWYRLRIIKSFSGNSASVR | 3.1 ± 0.074
YLYVGS | -0.352 ± 0.37
PYSWVEKASY | -0.322 ± 0.78
YSAVISHDVGLFVYLTETET | -0.363 ± 0.56
WGIVVNQYVVRSVRLKLQDR | 2.8 ± 0.13
LAKFESSEVACSLFFAISLA | -0.997 ± 0.94
RMSLLYLSSVKLFNWHAALG | -0.465 ± 0.6
VCCYILAYNMFGVLAEWLCG | 3.66 ± 0.069
PGPRVNHTRCVM | 1.52 ± 0.85
GNCSMSVGATLEGLMVRVHI | 0.027 ± 0.68
KCLTMDFLR | -1.12 ± 1.1
LLTTIGQTRMVIHKGIERNE | 1.77 ± 0.14
FSCFLMEISKGRGH | 4.18 ± 0.11
WVVCVIDEGSSTFFINI | -0.556 ± 1.4
IGDGSFYGLRQRQEARGKRA | -0.437 ± 0.73
EQENMCSVRQACIYH | 1.57 ± 0.29
ATQLAFSMILSAAVYFLKVV | -1.33 ± 1.7
FIRSVKRGARWSGGNFFIEG | inactive
RILCHLTNRWFEFDEVLVGV | 0.835 ± 0.48
SIVGLNQ | 0.742 ± 0.43
IWDHCFGPVKCCNIWGKEVG | 5.1 ± 0.079
DYNLVSRYVEPSRLVGFLRI | -0.226 ± 0.73

Substance | amyloid nucleation score
MRACRYANLNVSRNMWGICG | 0.743 ± 0.48
VLGMAEATADFSPIWVSKCS | 0.455 ± 1.4
YNPNGLTMGCGHKYTVEHTT | 0.128 ± 0.47
MGAWINYIAPTRYYLMDFFW | -1.7 ± 2.4
GSYECV | 0.734 ± 1.2
VLTLSTKLCLHRGGWTTKPT | 4.2 ± 0.068
VLMMVLGRWDTSSVMFIMMV | 0.343 ± 0.97
ILAWAMGI | 0.777 ± 0.78
SCSVYTGYSYGLRYNFDLVS | -1.81 ± 2.4
LHIFLTLHNQHVWARNGGKL | 0.603 ± 0.35
SRRSENYFSGANRIGHGGST | 0.54 ± 0.4
GHQILDSCLANCYGGCLIAC | 0.652 ± 0.61
NWVAYIPKDNVWVVRGKLKG | 0.753 ± 0.53
LWNLVLKCD | -0.215 ± 0.29
RDVCLQSGMVVFYF | 6.905 ± 0.061
HHINWPGCVSRNSYKAIYDG | -0.262 ± 0.84
LCLGCGYGEETI | 0.069 ± 0.37
VWGYVMRS | 0.299 ± 0.95
AGRSNF | -0.062 ± 1.2
VLFHHSSQIRVI | inactive
SVARCASPMQSLSLRGRPEG | inactive
